Assay results published in patent publication US20060241051A1 (Takeda / Millennium, published 2006).
Numbered stars: 1 amine (or outer) side, 2 acyl side, 3 side chain; on linkers, the order of the positions; unused ones are H or OH. Square brackets hold non-standard residues; d marks the D form. Primed or numbered codes have the meaning given here. Ends that are not written are not given here. * marks the point of attachment. Trp(For)″ = Trp(CHO), O=Cn1cc(C[C@H](N[*:1])C(=O)[*:2])c2ccccc21; Phe(3-CF3) = N[C@@H](Cc1cccc(C(F)(F)F)c1)C(=O)O; Phe(3,4-F2) = N[C@@H](Cc1ccc(F)c(F)c1)C(=O)O; Phe(4-CN) = N#Cc1ccc(C[C@H](N)C(=O)O)cc1; Phe(4-Cl) = N[C@@H](Cc1ccc(Cl)cc1)C(=O)O; Phe(3-F) = N[C@@H](Cc1cccc(F)c1)C(=O)O; Phe(4-F) = N[C@@H](Cc1ccc(F)cc1)C(=O)O; Phe(2-F) = N[C@@H](Cc1ccccc1F)C(=O)O; Arg(Me) = CNC(=N)NCCC[C@H](N)C(=O)O; Fmoc = O=C(OCC1c2ccccc2-c2ccccc21)*; 2Pal = N[C@@H](Cc1ccccn1)C(=O)O; 3Pal = N[C@@H](Cc1cccnc1)C(=O)O; Cha = N[C@@H](CC1CCCCC1)C(=O)O; Arg(Et)′ = not defined here; Dab = NCC[C@H](N)C(=O)O; azaGly = NNC(=O)O

Molecular target: T1, human OT7T175 (metastin receptor) (human, UniProt Q969F8 1-398)
T1 construct: expressed on CHO cells (hOT7T175-expressed CHO cells; hOT7T175/CHO); also called hOT7T175; h0T7T175
T1 sequence (Q969F8 whole entry L364H): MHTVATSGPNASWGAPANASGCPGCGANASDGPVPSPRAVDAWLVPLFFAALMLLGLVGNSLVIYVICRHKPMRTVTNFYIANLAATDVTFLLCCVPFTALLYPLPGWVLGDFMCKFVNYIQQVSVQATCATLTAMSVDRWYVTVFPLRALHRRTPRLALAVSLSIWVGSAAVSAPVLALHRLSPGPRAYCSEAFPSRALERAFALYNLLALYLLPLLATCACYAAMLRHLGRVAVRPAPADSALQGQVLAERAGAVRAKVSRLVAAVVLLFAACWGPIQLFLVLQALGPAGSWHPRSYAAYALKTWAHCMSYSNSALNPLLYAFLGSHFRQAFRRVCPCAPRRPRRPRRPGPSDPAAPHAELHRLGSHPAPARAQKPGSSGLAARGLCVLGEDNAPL
Experiment: FMAT competition with Cy-5-labeled metastin (40-54), hOT7T175-expressed CHO cells
Protocol: h0T7T175-Expressed CHO cells were cultured in MEM-α medium (nucleic acid-free) containing 10% dialyzed serum. The medium was removed and the adherent cells were washed with PBS. Then, PBS containing 5 mM EDTA was added and the cells were scraped from a flask with a cell scraper. […] To each well of a 96-Well Black Clear Bottom Plate (Applied Biosystems, Inc.), 10 μL of assay buffer containing 1% dimethylsulfoxide was added to examine total binding, 10 μL of 10 μM non-labeled peptide (having the same amino acid sequence as that of the labeled one) solution diluted with assay buffer to examine non-specific binding, and 10 μL of a test compound diluted with assay buffer to examine the binding inhibition activity of the test compound, respectively. Furthermore, 90 μL each of the cell suspension was dispensed to each well. […] The specific binding is a value obtained by subtracting the non-specific binding from the total binding.

| Binder | IC50 |
| --- | --- |
| [dY]NWNSFGL[Arg(Me)]F-NH2 (also: Phe6-Gly7 bond reduced (CH2NH)) [Compound No. 308: [6Ψ7, CH2NH,D-Tyr1,Arg(Me)9]MS10] | 350 nM |
| YNWNSF[azaGly]L[Arg(Me)]F-NH2 (also: Tyr1-Asn2 bond reduced (CH2NH)) [Compound No. 299: [1Ψ2,CH2NH,AzaGly7,Arg(Me)9]-MS10] | 1.2 nM |
| YNWNSFGLR[Phe(4-Cl)]-NH2 [Compound No. 130: [Phe(4Cl)10]MS10] | 42 nM |
| YNWNSFGL[Dab]F-NH2 [Compound No. 313: [Dab9]MS10] | 690 nM |
| [dY]N[dW]NSF[azaGly]LR(Me)F-NH2 [Compound No. 236: (D-Tyr1,D-Trp3,AzaGly7,Arg(Me)9]MS10] | 42 nM |
| YNWNSFGLRX (Pya(3)10; C-terminal amide) [Compound No. 60: [Pya(3)10]MS10] | 170 nM |
| YNWNSFGLR[Phe(4-F)]-NH2 [Compound No. 61: [Phe(4F)10]MS10] | 13 nM |
| [dY]NWNSFGL[Arg(Et)′]F-NH2 [Compound No. 192: [D-Tyr1,Arg(Et)9]MS10] | 530 nM |
| [dW]NSFGL[Arg(Me)]F-NH2 [Compound No. 223: des(1-2)-[D-Trp3,Arg(Me)9]MS10] | 760 nM |
| YNWNSFGLR(Et)F-NH2 [Compound No. 220: [Arg(Et)9]MS10] | 330 nM |
| {D‑Glucuronyl}-NSF[azaGly]L[Arg(Me)]F-NH2 [Compound No. 328: des(1-3)-D-Glucuronyl-[AzaGly7,Arg(Me)9]MS10] | 470 nM |
| YNWNSFGLR[Phe(2-F)]-NH2 [Compound No. 19: [Phe(2F)10]MS10] | 8.6 nM |
| [dY][dN][Cha]NSF[azaGly]L[Arg(Me)]F-NH2 [Compound No. 283: [D-Tyr1,D-Asn2,Cha3,AzaGly7,Arg(Me)9]MS10] | 0.69 nM |
| YNWNSFGLR[Phe(3,4-F2)]-NH2 [Compound No. 198: [Phe(3,4F2)10]MS10] | 170 nM |
| YNWNYFGLRF-NH2 [Compound No. 23: [Tyr5]MS10] | 400 nM |
| YNWNSFGLR[Trp(For)″]-NH2 (also called [Trp(CHO)10]MS10) [Compound No. 186: [Trp(For)10]MS10] | 460 nM |
| LNWNSFGLRF-NH2 [Compound No. 73: [Leu1]MS10] | 220 nM |
| [dY]NSNSF[azaGly]L[Arg(Me)]F-NH2 [Compound No. 191: [D-Tyr1,Ser3,AzaGly7,Arg(Me)9]MS10] | 300 nM |
| YNWNSFGVRF-NH2 [Compound No. 107: [Val8]MS10] | 120 nM |
| [dY]NPNSF[azaGly]L[Arg(Me)]F-NH2 [Compound No. 253: [D-Tyr1,Pro3,AzaGly7,Arg(Me)9]MS10] | 27 nM |
| YYWNSFGLRF-NH2 [Compound No. 58: [Tyr2]MS10] | 16 nM |
| YNSNSFGLRF-NH2 [Compound No. 69: [Ser3]MS10] | 83 nM |
| YNDNSFGLRF-NH2 [Compound No. 70: [Asp3]MS10] | 200 nM |
| [dY]NTNSF[azaGly]L[Arg(Me)]F-NH2 [Compound No. 221: [D-Tyr1,Thr3,AzaGly7,Arg(Me)9]MS10] | 95 nM |
| YNWNSFGLKF-NH2 [Compound No. 44: [Lys9]MS10] | 190 nM |
| YNWNSYGLRF-NH2 [Compound No. 150: [Tyr6]MS10] | 320 nM |

| Binder | IC50 |
| --- | --- |
| YNLNSFGLRF-NH2 [Compound No. 68: [Leu3]MS10] | 7.7 nM |
| [dY]N[dA]NSF[azaGly]L[Arg(Me)]F-NH2 [Compound No. 252: [D-Tyr1,D-Ala3,AzaGly7,Arg(Me)9]MS10] | 580 nM |
| ANWNSFGLRF-NH2 [Compound No. 72: [Ala1]MS10] | 540 nM |
| YNKNSFGLRF-NH2 [Compound No. 71: [Lys3]MS10] | 66 nM |
| YDWNSFGLRF-NH2 [Compound No. 57: [Asp2]MS10] | 100 nM |
| YLWNSFGLRF-NH2 [Compound No. 59: [Leu2]MS10] | 340 nM |
| YNANSFGLRF-NH2 [Compound No. 67: [Ala3]MS10] | 27 nM |
| YNWNSFGLR[Phe(3-F)]-NH2 [Compound No. 197: [Phe(3F)10]MS10] | 170 nM |
| YNWNSFGLR[Phe(3-CF3)]-NH2 [Compound No. 200: [Phe(3CF3)10]MS10] | 340 nM |
| Ac-RNSF[azaGly]L[Arg(Me)]F-NH2 (SMILES CNC(=N)NCCC[C@H](NC(=O)[C@H](CC(C)C)NC(=O)NNC(=O)[C@H](Cc1ccccc1)NC(=O)[C@H](CO)NC(=O)[C@H](CC(N)=O)NC(=O)[C@H](CCCNC(=N)N)NC(C)=O)C(=O)N[C@@H](Cc1ccccc1)C(N)=O) [Compound No. 275: des(1-2)-Acetyl-[Arg3,AzaGly7,Arg(Me)9]MS10] | 410 nM |
| Ac-TNSF[azaGly]L[Arg(Me)]F-NH2 (SMILES CNC(=N)NCCC[C@H](NC(=O)[C@H](CC(C)C)NC(=O)NNC(=O)[C@H](Cc1ccccc1)NC(=O)[C@H](CO)NC(=O)[C@H](CC(N)=O)NC(=O)[C@@H](NC(C)=O)[C@@H](C)O)C(=O)N[C@@H](Cc1ccccc1)C(N)=O) [Compound No. 276: des(1-2)-Acetyl-[Thr3,AzaGly7,Arg(Me)9]MS10] | 480 nM |
| [dY]NWNSF[azaGly]L[Arg(Me)][Phe(4-F)]-NH2 [Compound No. 318: [D-Tyr1,AzaGly7,Arg(Me)9,Phe(4F)10]MS10] | 0.99 nM |
| NWNSFGLRF-NH2 (also called human metastin 9 (46-54)) [Compound No. 4: des(1)-MS10] | 260 nM |
| [dN][dW]NSFGL[Arg(Me)]F-NH2 [Compound No. 225: des(1)-[D-Asn2,D-Trp3,Arg(Me)9]MS10] | 410 nM |
| [dY]SNSFGL[Arg(Me)]F-NH2 [Compound No. 226: des(1)-[D-Tyr2,Ser3,Arg(Me)9]MS10] | 100 nM |
| [dY]INSF[azaGly]L[Arg(Me)]F-NH2 [Compound No. 240: des(1)-[D-Tyr2,Ile3,AzaGly7,Arg(Me)9]MS10] | 17 nM |
| [dY]SNSF[azaGly]L[Arg(Me)]F-NH2 [Compound No. 239: des(1)-[D-Tyr2,Ser3,AzaGly7,Arg(Me)9]MS10] | 120 nM |
| [dY]TNSFGL[Arg(Me)]F-NH2 [Compound No. 227: des(1)-[D-Tyr2,Thr3,Arg(Me)9]MS10] | 48 nM |
| [dY]NWNSFGL[Arg(Me)]F-NH2 (also: Gly7-Leu8 bond reduced (CH2NH)) [Compound No. 307: [7Ψ8,CH2NH,D-Tyr1,Arg(Me)9]MS10] | 64 nM |
| [dY]N[2Pal]NSF[azaGly]L[Arg(Me)]F-NH2 (N-terminus assumed; SMILES CNC(=N)NCCC[C@H](NC(=O)[C@H](CC(C)C)NC(=O)NNC(=O)[C@H](Cc1ccccc1)NC(=O)[C@H](CO)NC(=O)[C@H](CC(N)=O)NC(=O)[C@H](Cc1ccccn1)NC(=O)[C@H](CC(N)=O)NC(=O)[C@H](N)Cc1ccc(O)cc1)C(=O)N[C@@H](Cc1ccccc1)C(N)=O) [Compound No. 285: [D-Tyr1,Pya(2) 3,AzaGly7,Arg(Me)9]MS10] | 40 nM |
| [dY]N[Cha]NS[Cha]GL[Arg(Me)]F-NH2 [Compound No. 181: [D-Tyr1,Cha3,6,Arg(Me)9]MS10] | 19 nM |
| [dY]N[3Pal]NSF[azaGly]L[Arg(Me)]F-NH2 (N-terminus assumed; SMILES CNC(=N)NCCC[C@H](NC(=O)[C@H](CC(C)C)NC(=O)NNC(=O)[C@H](Cc1ccccc1)NC(=O)[C@H](CO)NC(=O)[C@H](CC(N)=O)NC(=O)[C@H](Cc1cccnc1)NC(=O)[C@H](CC(N)=O)NC(=O)[C@H](N)Cc1ccc(O)cc1)C(=O)N[C@@H](Cc1ccccc1)C(N)=O) [Compound No. 251: [D-Tyr1,Pya(3) 3,AzaGly7,Arg(Me)9]MS10] | 87 nM |
| [dY]N[dW]NSFGL[Arg(Me)]F-NH2 [Compound No. 142: [D-Tyr1,D-Trp3,Arg(Me)9]MS10] | 26 nM |
| YNWNSFGLR[Phe(4-CN)]-NH2 [Compound No. 77: [Phe(4CN)10]MS10] | 7.4 nM |
| YNWNSFGL[Arg(Me)]F-NH2 [Compound No. 82: [Arg(Me)9]MS10] | 4.1 nM |
| Fmoc-WNSFGL[Arg(Me)]F-NH2 (SMILES CNC(=N)NCCC[C@H](NC(=O)[C@H](CC(C)C)NC(=O)CNC(=O)[C@H](Cc1ccccc1)NC(=O)[C@H](CO)NC(=O)[C@H](CC(N)=O)NC(=O)[C@H](Cc1c[nH]c2ccccc12)NC(=O)OCC1c2ccccc2-c2ccccc21)C(=O)N[C@@H](Cc1ccccc1)C(N)=O) [Compound No. 145: des(1-2)-Fmoc-[Arg(Me)9]MS10] | 120 nM |
